# Test results as given in US20250154215A1, “PHARMACEUTICAL COMPOSITION FOR TREATING COLITIS OR COLORECTAL CANCER COMPRISING COLON-TARGETED S100A8/A9-DERIVED SPECIFIC PEPTIDE” (Industry-University Cooperation Foundation Hanyang …, priority 2023, published 2025).
# Entries after “also recorded” stand apart in the source; their conditions may differ.
# B1: TWYKIAFQRNRKTWYKIAFQRNRKTWYKIAFQRNRKTWYKIAFQRNRKTWYKIAFQRNRKGGFLVIKGGAHKSHKGGITIITFGGGHHGGFLVIKGGAHKSHKGGITIITFGGGHHGGFLVIKGGAHKSHKGGITIITFGGGHHGG (protein)
# chain: TWYKIAFQRNRKTWYKIAFQRNRKTWYKIAFQRNRKTWYKIAFQRNRKTWYKIAFQRNRKGGFLVIKGGAHKSHKGGITIITFGGGHHGGFLVIKGGAHKSHKGGITIITFGGGHHGGFLVIKGGAHKSHKGGITIITFGGGHHGG
# modifications: N-terminal 6xHis tag
# Experiments:
# [1] = design: species or system mice; settings: mouse, in vivo
# Description: FIGS. 6A-6D show the effect of rCT-S100A8/A9 peptide on colon targeting. […] Mice were exposed to 3% DSS for six days and evaluated on day 6 (left). For IB with αITGA6, αITGB1, or αActin, multiple organ harvests were used and ITGA6+ or ITGB1+ cell numbers were analyzed through FACS. […] Intraperitoneal administration of rCT-S100A8/9 conjugated with Cy5.5 for one hour and colon harvest. Colon harvests were used for IB including αITGA6, αITGB1, or αActin and ITGA6+ or ITGB1+ cell numbers were analyzed through FACS. […] Mice were treated with 3% DSS for six days and administered 1, 2, or 3 doses of Texas Red conjugated with rCT-S100A8/9. Colons were harvested in a time-dependent manner and analyzed for Texas Red+ cell numbers through FACS. Data is representative of three independent experiments with similar results. Data is shown as the mean±SD of three experiments;
# S100A8 or S100A9 peptides or rCT-S100A8/9 was conjugated to Texas Red using the Texas Red® Conjugation Kit (Fast)-Lightning-Link (Abcam) to quantitatively measure cellular uptake in macrophages and pharmacodynamics in a colitis model. Cells were washed thoroughly and quickly with pulse spins and immediately acquired for analysis on FACSCalibur (BD Biosciences, San Jose, CA, USA). Data was plotted using CellQuest software (BD Biosciences) and analyzed using FlowJo software (Tree Star, Ashland, OR, USA). […]
# [2] = design: species or system BALB/c mice; settings: mouse, in vivo
# Description: FIGS. 12A-12E show biological effects of rCT-S100A8/9 in tumor-bearing mice. […] Each vertical bar represents the mean±SD of cell viability at each dose. Data is shown as the mean±SD of six experiments. […] HCT116 cells were injected subcutaneously into the flanks of BALB/c mice as described in the Methods section. Mice were administered one or two intraperitoneal doses and sacrificed on day 5. Their expression was assessed by IB in various organs of mice. WCLs were used for IB including αActin. Data is representative of four independent experiments with similar results. […] E-cadherin, N-cadherin, and β-catenin staining of the tumors. […] Mice were immunized by each route (i.v. or i.p.) every 3 days, and blood was collected on day 40. IgG levels specific for rCT-S100A8/9 or ovalbumin (OVA) were measured using ELISA. Values represent the mean optical density (OD) and standard deviation at 450 nm. Each group included five mice. […] Serum cytokine levels were measured 30 days after administration. […]
# A major concern with protein therapeutics derived from endogenous human proteins is that they may induce strong anti-therapeutic antibody responses and stimulate undesirable immune responses. […] Therefore, the immunogenicity of rCT-S100A8/A9 was assessed by measuring the production of anti-rCT-S100A8/A9 antibodies in mice immunized with the peptide according to the present invention. […]
# [3] = DSS-induced acute colitis mouse model; type: in vivo, mice; settings: treatment for three consecutive days
# OxaR HCT116 xenograft = test: Parental or OxaR HCT116 xenograft tumor growth inhibition; type: in vivo, mice
# Description: For tumor xenograft experiments, 4- to 6-week-old female athymic nude mice (Central Lab Animal Inc., Seoul, Korea) were used. 1×10^6 HCT116 cells suspended in 0.1 mL of a cell culture medium were injected subcutaneously into the animals' right axillary region and observed for 7 to 10 days while the tumor volume was measured. Treatment was initiated when the tumor size reached an average volume of 200 or 600 mm^3. The tumor volume was measured with a skin caliper every three days, calculated as (tumor length)×(tumor width)^2×0.5, and expressed in mm^3. All animals were maintained in a specific pathogen-free environment. All animal-related procedures were examined and approved by the Hanyang University Institutional Animal Care and Use Committee (protocol numbers: 2022-0145 and 2022-0266).
# Next, tumor growth inhibition assays were performed under various tumor growth conditions, and rCT-S100A8/A9 treatment was started according to the size of the established tumors. For initial tumor growth, rCT-S100A8/A9 treatment was started 10 days after tumor establishment, and for actively growing tumors, rCT-S100A8/A9 treatment was started 21 days after tumor establishment.
# [4] = AOM/DSS-induced colitis-associated colorectal cancer (CAC) mouse model; type: in vivo, mice
# From the text: Weight of mice compared to baseline during AOM/DSS administration. In this experiment, weight loss is a surrogate indicator of colitis severity. Data is representative of two independent experiments with similar results. […] Note the higher tumor burden in the distal colon/rectum and the characteristic wrinkled texture of the proximal colon with little tumor growth. […] Most tumors are located in the distal colon, and their sizes are less than 2 mm. Data is shown as the mean±SD of six experiments. […] H&E and β-catenin stained slides show dysplastic changes similar to human colonic adenocarcinoma;
# DSS-induced acute or chronic colitis and AOM/DSS CRC mouse models were prepared using 6-week-old C57BL/6 female mice (Samtako Bio, Osan, Korea). To assess the induction of acute colitis, mice were exposed ad libitum to 3% (w/v) dextran sodium sulfate (molecular weight: 36-50 kDa, MP Biomedicals, Santa Ana, CA, USA) dissolved in drinking water. The mouse models are illustrated in FIGS. 7A, 5E, and 6A. DSS solutions were prepared every two days. […] The humane endpoint for weight loss (requiring euthanasia) was 20% (compared to the original body weight of an animal). Without an approved exception request, body weight loss could not exceed 20%.
# AOM/DSS-treated mice were administered rCT-S100A8/A9 four times according to the administration frequency during three DSS cycles until week 10 (FIG. 9A, top). […] Tumor induction by AOM/DSS treatment was mainly observed in the distal colon and produced colonic shortening in the CAC mouse model.
# [5] = immunostaining, vs control group
molecule,measurement,setting,value
B1,retained in the colon,[1],50%
same,production of specific anti-rCT-S100A8/A9 antibodies,[2],negligible compared to that induced by ovalbumin
same,survival rate by treatment frequency,[3],highest survival rate
same,epithelial-to-mesenchymal transition in tumors (profiler PCR array),OxaR HCT116 xenograft; HCT116 xenografts,regulates the involvement of epithelial-to-mesenchymal transition
same,interaction of S100 and PRRs in xenograft tumors,OxaR HCT116 xenograft; Western blot,significantly reduced
same,expression of E-cadherin in tumor sections,OxaR HCT116 xenograft; [5],increased
same,expression of N-cadherin and β-catenin in tumor sections,OxaR HCT116 xenograft; [5],decreased
same,tumor growth,OxaR HCT116 xenograft; initially growing and actively growing tumors,significantly inhibited tumor growth
same,colonic length,[4]; AOM/DSS,restored
same,histological colonic damage (H&E),[4]; AOM/DSS,significant alleviation; also recorded: significantly alleviated
same,tumor burden in the distal colon,[4]; AOM/DSS,decreased
same,β-catenin protein levels in colon (immunohistochemistry),[4]; AOM/DSS,effectively suppressed
same,body weight gain,"[4]; AOM/DSS, three DSS cycles until week 10",higher weight gain rate according to the treatment frequency; also recorded: increased
same,epithelial-to-mesenchymal transition (profiler PCR array),[4]; CRC colon tissues,regulated
same,number of tumors less than 2 mm,[4]; treatment for three consecutive days,significantly reduced
